Experimental data from patent US7947285B2, “Methods for preventing post endoscopic retrograde cholangiopancreatography pancreatitis” (priority 2003, dated 2011).
Where no end group is shown, it is not given here.

Legend:
[1] = tested on: patients undergoing ERCP; assay: Vital signs (systolic and diastolic BP, pulse) pre and post ERCP; format: in vivo, human
Method: (§1) This study evaluated the following safety variables: (1) Adverse events; (2) Vital signs; (3) Serum Amylase (when clinically indicated); and (4) Serum Lipase (when clinically indicated). No drug concentration measurements were assessed in this study.
(§2) Primary and secondary efficacy variables were compared between the treatment groups using the Fisher Exact Test or Cochran-Mantel Haenszel Association Test. Adverse events and vital signs (heart rate, blood pressure) were compared between the treatment groups using the t-test. The clinical assumption on which the power calculation is based was on incidence of post-ERCP pancreatitis among all patients without pancreas divisum of 6%. In order to show a 50% reduction in the rate of post-ERCP pancreatitis with a significance of p=0.05, at a power of 80%, 749 evaluable patients per treatment group (sPS vs. placebo) were needed.
Systolic and Diastolic blood pressure and pulse were measured for all patients' pre and post-ERCP procedure.

[2] = tested on: patients undergoing ERCP; assay: Adverse events; format: in vivo, human
Method: as §1, §2

With “synthetic porcine secretin (HSDGTFTSELSRLRDSARLQRLLQGLV-NH2; ends and bridges not checked; UniProt P63298 33-59, looked up) [SPS, synthetic form of porcine secretin, a 27 amino acid gastrointestinal peptide hormone]” the “Diastolic BP post-ERCP, Mean (SD)” value ([1]; N = 381) was 68.7 (13.4) (N = 381) mm/Hg, the “Pulse post-ERCP, Mean (SD)” value ([1]; N = 381) was 91.0 (20.4) (N = 381) and the “Systolic BP post-ERCP, Mean (SD)” value ([1]; N = 381) was 131.0 (23.9) (N = 381) mm/Hg. For the same substance, the “Diastolic BP pre-ERCP, Mean (SD)” value ([1]; baseline, N = 397) was 74.6 (12.8) (N = 397) mm/Hg, the “Pulse pre-ERCP, Mean (SD)” value ([1]; baseline, N = 397) was 81.0 (15.7) (N = 397) and the “Systolic BP pre-ERCP, Mean (SD)” value ([1]; baseline, N = 397) was 142.3 (24.9) (N = 397) mm/Hg. The “Change in Systolic BP, Mean (SD)” value ([1]; pre to post ERCP, N = 378, p 0.0007) was −11.4 (29.2) (N = 378) mm/Hg, the “Change in Diastolic BP, Mean (SD)” value ([1]; pre to post ERCP, N = 378, p 0.1163) was −6.0 (15.3) (N = 378) mm/Hg and the “Change in Pulse, Mean (SD)” value ([1]; pre to post ERCP, N = 378, p 0.1324) was 9.7 (17.7) (N = 378). The “Patients with AE related to study drug (%)” value ([2]; N = 488) was 0.2%, the “Patients with AE related to study drug: number” value ([2]; N = 488) was 1 and the “Patients with serious AE (%)” value ([2]; N = 488) was 0 (0) %. The “Patients with serious AE: number” value ([2]; N = 488) was 0 (0), the “Patients with severe AE (%)” value ([2]; N = 488) was 0.2% and the “Patients with severe AE: number” value ([2]; N = 488) was 1. For the same substance, the “Patients with unknown severity to AE (%)” value ([2]; N = 488) was 0.2%, the “Patients with unknown severity to AE: number” value ([2]; N = 488) was 1 and the “Total No. of AEs related to study drug” value ([2]; N = 488) was 1. For the same substance, the “Total No. of AEs related to study drug (%)” value ([2]; N = 488) was 0.2%, the “Total No. of serious Aes” value ([2]; N = 488) was 0 (0) and the “Total No. of serious Aes (%)” value ([2]; N = 488) was 0 (0) %. For the same substance, the “Total No. of severe Aes” value ([2]; N = 488) was 2, the “Total No. of severe Aes (%)” value ([2]; N = 488) was 0.4% and the “Total No. of unknown severity to AE” value ([2]; N = 488) was 1. For the same substance, the “Total No. of unknown severity to AE (%)” value ([2]; N = 488) was 0.2%, the “Total No. of Aes” value ([2]; N = 488, p 0.0006) was 25 and the “Total No. of Aes (%)” value ([2]; N = 488, p 0.0006) was 5.1%. For the same substance, the “Total No. of mild/moderate Aes” value ([2]; N = 488, p 0.0039) was 21, the “Total No. of mild/moderate Aes (%)” value ([2]; N = 488, p 0.0039) was 4.3% and the “Patients with any AE (%)” value ([2]; N = 488, p 0.0052) was 4.1%. The “Patients with any AE: number” value ([2]; N = 488, p 0.0052) was 20, the “Patients with mild/moderate AE (%)” value ([2]; N = 488, p 0.0208) was 3.5% and the “Patients with mild/moderate AE: number” value ([2]; N = 488, p 0.0208) was 17. For the same substance, the “AE judged by the investigator to be related to study drug” value ([2]; patient #16, mild AE of an hour duration) was “drop in blood pressure” and the “overall safety and tolerability” value ([2]; patients undergoing ERCP, 16 mcg IV) was “safe and well tolerated”.
